Experimental data reported in the nanobody polyreactivity screen of Harvey et al. (2022).

test: yeast display, Sf9 membrane polyspecificity reagent, FACS + sequencing; frameworks hold sequencing errors
Summary of the method: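 Nanobodies from a synthetic yeast display library (Saccharomyces cerevisiae BJ5465), induced 36–48 hours with galactose, were stained 1 hour at 4 °C with 10% biotinylated, detergent-solubilized Sf9 membrane reagent, enriched on streptavidin microbeads, then FACS-sorted. Anti-HA (expression) and streptavidin (reagent binding) fluorescence set low and high (top ~1%) gates. Polyreactivity labels come from the gate of origin. Genes were colony-PCR amplified, MiSeq 2 × 250 sequenced and filtered by CDR length.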

Sequence	polyreactivity (PSR sort gate)
QVQLVESGGGLVQAGGSLRLSCAASGSTFHSYVMGWYREAPGIERELVAAITSRGGSTNYADSVKGRFTISRDNAKNTVYFQMNSLKPEDTAVYYCAAEWLYPLDGGYPRPMDYWGQGTQVTVSS	low polyreactivity
QVQLVESGGGLVQAGGSLRLSCAASGSTFHVNAMGWYRQAPGKEREFVAAISWRTGSTYYADSVKGRFTISRDNAKNTVYLQMNSLKPEDTAVYYCAAKRSYSNYDYWGQGTQVTVSS	high polyreactivity
QVQLVESGGGLVQAGGSLRLSCAASGSTFHVYAMGWYRQAPGKEREFVASITTRGGSTYYADSVKGRFTISRDNAKNTVYLQMNSLKPEDTAVYYCNATPYPGGNGRWRFWKSYGYWGQGTQVTVSS	high polyreactivity
QVQLVESGGGLVQAGGSLRLSCAASGSTFHWYAMGWYRQAPGKERELVAVITWSGGSTYYADSVKGRFTISRDNAKNTVYLQMNSLKPEDTAVYYCARDWYRYKLWLFRGQDGDYWGQGTQVTVSS	low polyreactivity
QVQLVESGGGLVQAGGSLRLSCAASGSTFHYYAMGWYRQAPGKERELVAAISSSGVSTYYADSVKGRFTISRDNAKNTVYLQMNSLKPEDTAVYYCNRASVFHYRWYYYWGQGTQVTVSS	high polyreactivity
QVQLVESGGGLVQAGGSLRLSCAASGSTFHYYAMGWYRQAPGKERELVATITSSGCSTYYADSVKGRFTISRDNAKNTVYLQMNSLKPEDTAVYYCNKKSYYRDYGRYDYWGQGSQVTVSS	low polyreactivity
QVQLVESGGGLVQAGGSLRLSCAASGSTFIANALGWYRQAPGKEREFVAAITWSGGSTYYADSVKGRFTLSRDNAKNTVFLQMNSLKPEDTAVYYCAKKGRTARGRYDYWGQGTQVTVSS	low polyreactivity
QVQLVESGGGLVQAGGSLRLSCAASGSTFIAYAMGWYRQAPGKESELVAAITSGDGTYYADSVKGRFTISRDNAKNTVYLQMNSLKPEDTAVYYCAVGYYWNEPLYWYGDFDYWGQGTQVTVSS	high polyreactivity
QVQLVESGGGLVQAGGSLRLSCAASGSTFIDYAMGWYRQAPGKEREFVAGISSGDSTDYADSVKGRFTISRDNAKNTVYLQMNSLKPEDTAVYYCNADWNPTERWFYWYTPLGYDYWGQGTQVTVSS	low polyreactivity
QVQLVESGGGLVQAGGSLRLSCAASGSTFIDYAMGWYRQAPGKERELVAAITNGGNTKYADSVKGRFTISRDNAKNTVYLQMNSLKPEDTAVYYCAREPSIFTPSYDYWGQGTQVNVSS	low polyreactivity
QVQLVESGGGLVQAGGSLRLSCAASGSTFIDYGMGWYRQAPGKERELVAAIDLDSGDTYYADSVKGRFTISRDNAKNTVYLQMNSLKPEDTAVYYCAAQYWYRYNYWGQGTQVTVSS	low polyreactivity
QVQLVESGGGLVQAGGSLRLSCAASGSTFIGHAMGWYRQAPGIERELVATITSGDSTYADSVKGRFTISRDNAKNTVYLQMNSLKPEDTAVYYCNADPWDIGSSFELDYWGQGTQLTVSS	low polyreactivity
QVQLVESGGGLVQAGGSLRLSCAASGSTFIINAMGWYRQAPGKERELVAAITIGDITNYADSVKGRFTISRDNAKNTVYLQMNSLKPEDTAVYYCNKDALLFWHRDYVLDTYEYWGQGTQVTVSS	low polyreactivity
QVQLVESGGGLVQAGGSLRLSCAASGSTFILYAMGWYRQAPGKERELVAAITTSGGSTYYADSVKGRFTISRDNAKNTVYLQMKSLKPEDTAVYYCNGGLSVTHGTSIPFRNYEYWGQGTQVTVSS	low polyreactivity
QVQLVESGGGLVQAGGSLRLSCAASGSTFINYAMGWYREAPGKERELVAAISKGGGSTYYADSVKGRFTISRDTAKNTVYLQINSLKPEDTAVYDCARARSGGSHREYYWGQGTQVTVSS	high polyreactivity
QVQLVESGGGLVQAGGSLRLSCAASGSTFINYAMGWYRQAPGKERELVAAYADSVKGRFTISRDNAKNTVYLQMNRLKPEDTAVYDCNAVTGECGQGTQVTVSS	low polyreactivity
QVQLVESGGGLVQAGGSLRLSCAASGSTFIRNAMGWYRQAPGKERELVAAISSSGGRTYYADSVKGRFTISRDNAKNTVYLQMNSLKPEDTAVYYCAARAVGAYYSSYSHGAGYYYWGQGTQLTVSS	high polyreactivity
QVQLVESGGGLVQAGGSLRLSCAASGSTFIRYTMGWYRQAPGKERELVAAISTGGTNYADSVKGRFTISRDNAKNTVYLQMYSLKPGDTAVYYCAKPSSPSLGGVSDRIYWGQGTQVTVSS	low polyreactivity
QVQLVESGGGLVQAGGSLRLSCAASGSTFISNAMGWYRQAPGKERELVASITWTDVSTYYADSVKGRFTISRDNAKNTVYLQMNSLKPEDTAVYYCAAVTGLSSNDGYDYWGQGTQVTVSS	low polyreactivity
QVQLVESGGGLVQAGGSLRLSCAASGSTFITNIMGWYRQAPGKERELVAAISYIDGTTYYADSVKGRFTISRDYAKNTVYLQMNSLKADDTAVYYCAAVVSKSSFDYWGQGTQVTVSS	low polyreactivity
QVQLVESGGGLVQAGGSLRLSCAASGSTFITYAMGWYRQAPGKERELVAAISWSGVGTYYADSVKGRFTISRDNAKNTVYLQMNSLKPEDTAVYYCAVDRIYYYTYGVYYWGQGTQVTVSS	high polyreactivity
QVQLVESGGGLVQAGGSLRLSCAASGSTFIVNAMGWYRQAPGKERELVAAISRSGSDTYYADSVKGRFTISRDNAKNTVYLQMNSLKPEDTAVYYCAARWSYRSLARYNYWGQGTQVTVSS	low polyreactivity

Sequence	polyreactivity (PSR sort gate)
QVQLVESGGGLVQAGGSLRLSCAASGSTFIVNAMRWYRQAPGKERELVAAIDWSGGSTYYADSVKGRFTISRDNAKNTVYLQMNSLKPEDTAVYYCAAQYEIPAGNSTYDYWGQGTQVTVSS	low polyreactivity
QVQLVESGGGLVQAGGSLRLSCAASGSTFIVYAMGWYRQATGKERELVAAISLDGGSTYYADSVKGRFTISRDNAKNTVYLQMNSLKPEDTAVYYCNADYYANSITYDSWGQGTQVTVSS	low polyreactivity
QVQLVESGGGLVQAGGSLRLSCAASGSTFIWNAMGWYRQAPRKERELVATITYSGGSTYYADSVKGRFTISRDNAKNTVYLQMNSLKPEDTAVYYCATDATIPKCYTYPGEMDYWGQGTQVTVSS	low polyreactivity
QVQLVESGGGLVQAGGSLRLSCAASGSTFIYYTMGWYRQAPGKERELVAAISWRGGSTYYADSVKGRFTIARDNAKNTVYLQMNSLKPEDTAVYYCATGYLYFTSYRYNYWGQGTQVTVSS	low polyreactivity
QVQLVESGGGLVQAGGSLRLSCAASGSTFKGTAMGWYRQAPGNERELVAAINRSGTSTYYAHSVKGRFTISRDNAKNTVYLQMNSLKPEDTAVYYCANKYFGHRFDYWGQGTQVTVSS	high polyreactivity
QVQLVESGGGLVQAGGSLRLSCAASGSTFKGYAMGWYRQAPGKERELVAAITWSSGRTYYADSVKGRFTISRDNAKNTVYLQMNSLKPEDTAVYYCAAKSRRTRRSYYWGQGTQVTVSS	high polyreactivity
QVQLVESGGGLVQAGGSLRLSCAASGSTFKIYAMGWYRQAPGKERELVAVITSGGRTNYADSGKGRFTISRDNAKNTVYLQMNSLKPEDTAVYYCARGRSIHSSNRLEYWGQGTQVTVSS	high polyreactivity
QVQLVESGGGLVQAGGSLRLSCAASGSTFKKYVMGWYRQAPGKERELVAAISSTGRTNYADSVKGRFTISRDNAKNTVYLQMNSLKPEDTAVYYCAKRYRKYSLGPPGNDYWGQGTQVTVSS	high polyreactivity
QVQLVESGGGLVQAGGSLRLSCAASGSTFKLYAMGWYRPAPGKERELVAAITRSGTRTYYADSVKGRFTISRDNAKNTVYLQMNSLKPEDTAVYYCAADGYRISGYDYWGQGTQVTVSS	high polyreactivity
QVQLVESGGGLVQAGGSLRLSCAASGSTFKPNVMGWYRPAPGKERELVAAITSTDDRTYYADSVKGRFTISRDNAKNTVYLQMNSLKPEDTAVYYCNRPYAWYGYIYNYWGQGTQVTVSS	low polyreactivity
QVQLVESGGGLVQAGGSLRLSCAASGSTFKQYTMGWYRQAPGKERELVAAISWSGTSTYYADSVKGRFTISRDNAKNTVYLLMNSLKAEDTAVYYCAAVSYVWQYYYWGQGTQVTVSS	high polyreactivity
QVQLVESGGGLVQAGGSLRLSCAASGSTFKRNAMGWYRQAPGKERELVAAISFRGGSTYYADSVKGRFTISRDNAKNTVYLQMNSLKPEDTAVYSCAAGIYRIRGGGISFDYWGQGTQVTVSS	high polyreactivity
QVQLVESGGGLVQAGGSLRLSCAASGSTFKRYAMGWYRQAPGKDRELVAAIRRGGITNYADSVKGRFTISRDNAKNTVYLQMNSLKPEDTAVYYCAKDGVTYPYSYEYDYWGQGTQVTVSS	low polyreactivity
QVQLVESGGGLVQAGGSLRLSCAASGSTFKRYAMGWYRQAPGKERELVAAISSGGTTNYADSVKGRFTISRDNAKNTVYLQMNSLKPEDTAVYYCNRKFRYSSHTNYYYWGQGTQVTVSS	high polyreactivity
QVQLVESGGGLVQAGGSLRLSCAASGSTFKRYAMGWYRQAPGKERELVAAITNGDRTNYADSVKGRFTISRDNAKKTVYLQMNSLKPEDTAVYYCAAAYSRYTSRFYYWGQGTQVTVSS	high polyreactivity
QVQLVESGGGLVQAGGSLRLSCAASGSTFKRYAMGWYRQAPGKERELVASISSGGSTNYADSVKGRFTISRDNAKNTVYLQMNSLKPEDTAVYYCATYLVTGGGLNVRYDYWGQGTQVTVSS	high polyreactivity
QVQLVESGGGLVQAGGSLRLSCAASGSTFKRYAMGWYRQAPGKERELVASISSGGSTNYVDSVKGRFTISRDNAKNTVYLQMNSLKPEDTAVYYCAVSYRSFRYYWERYYSWGQGTQVTVSS	high polyreactivity
QVQLVESGGGLVQAGGSLRLSCAASGSTFKRYAMGWYRQAPGKERELVATINSGTSTNYADSVKGRFTISRDNAKNTVYLEMNSLKPEETAVYYCAKSFRRSVGGYGYDYWGQGTQVSVSS	low polyreactivity
QVQLVESGGGLVQAGGSLRLSCAASGSTFKRYTMGWYRQAPGKERELVAAISTSSGSTYFADSVKGRFTISRDNAKISVYLQMNSLKPEDSAVYYCDAVRLRQTYPKYNYWGQGTQVTVSS	high polyreactivity
QVQLVESGGGLVQAGGSLRLSCAASGSTFKTYAMGWYRQAPGKEREFVASISTSGGSTYYADSVKGRFTISRDNAKNTVYLQMNSLKPEDTAVYYCAAKGRSYGVTRMYYWGQGTQVTVSS	high polyreactivity
QVQLVESGGGLVQAGGSLRLSCAASGSTFKTYAMGWYRQAPGKESELVAAISWSGGSTYYADSVKGRFTISRDNAKNTVYLQMNSLKPEDTAVYYCNAGWGYPSPWFIGEYWGQGTQVTVSS	low polyreactivity
